± gives the standard deviation.
Assay: protein stability index of a GFP-peptide fusion (GPS, HEK-293T) (PSI 1-6); higher = more stable
[1] = treatment: DMSO, c terminus: a fixed tail appended
[2] = treatment: MLN4924 1 uM, 8 h, c terminus: a fixed tail appended
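Also: 24-mer peptide tiles fused after GFP, lentivirally expressed, FACS-sorted into six equal bins by GFP/DsRed ratio, decoded by Illumina sequencing, PSI is the read-weighted mean bin number.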

Row | Sequence | protein stability index [1] | protein stability index [2] | protein stability index (treatment: DMSO, c terminus: native) | protein stability index (treatment: MLN4924 1 uM, 8 h, c terminus: native)
1 | KGTFKDYVRDRADLNKDKPVIPAA [ETS1] | 4.35 ± 0.13 | 4.43 ± 0.16 | – | –
2 | GNQESKLIILASGGPQALVNIMRT [CTNNB1] | 2.21 ± 0.57 | 2.26 ± 0.69 | – | –
3 | KDAPCYESDTDIYETVAAATSEST [DRICH1] | 5.4 ± 0.15 | 5.38 ± 0.1 | – | –
4 | GSLGPVPVLRFDALWQVLARDCFA [TRIM14] | 2.42 ± 0.83 | 2.89 ± 0.43 | – | –
5 | TSFLQHPWDESGSGCLPPEPLFEA [FOXJ1] | 3.56 ± 0.22 | 3.62 ± 0.35 | – | –
6 | SPLTLAACGGHVELAALLIERGAS [ANKRD17] | 2.48 ± 0.33 | 2.48 ± 0.31 | – | –
7 | YIQSRADTMQNIESTIVELGSIFQ [STX5] | 2.33 ± 0.2 | 2.62 ± 0.29 | – | –
8 | YWEAWRHHCQGKDLTEWVDGCDF [SPACA3] | – | – | 2.84 ± 0.15 | 3.04 ± 0.25
9 | ARLTYSIVGNQVQGAPASSFVYVN [PCDHGC5] | 2.38 ± 0.39 | 2.19 ± 0.26 | – | –
10 | NVNSNLITWNRVVLLHGPPGTGKT [TRIP13] | 2.45 ± 0.21 | 2.53 ± 0.14 | – | –
11 | AVGYQPEYSKFCRMSYQDPAQLSC [NFE2L1] | 2.63 ± 0.41 | 2.2 ± 0.44 | – | –
12 | DPLLLILSFLDYRDLINCCYVSRR [FBXO3] | 2.91 ± 0.74 | 3.05 ± 0.82 | – | –
13 | IRLKESINCQLSDPSSTKPGTLLK [TRIM14] | 3.28 ± 0.3 | 3.48 ± 0.33 | – | –
14 | NSFRLLFDVVVILTCSLSFLLCAR [MCOLN1] | 3.21 ± 0.17 | 3.24 ± 0.24 | – | –
15 | EMRQALQALLKENRLLQEENRTLQ [CBY2] | 2.53 ± 0.45 | 2.65 ± 0.41 | – | –
16 | AAFVRAQADLLAHLVPEPDRLEEQ [DNAAF3] | 4.05 ± 0.13 | 4.12 ± 0.29 | – | –
17 | ARLVFVPLLLLCNIKPRRYLTVVF [SLC29A1] | 2.92 ± 0.51 | 2.91 ± 0.87 | – | –
18 | AVAVDVAVPKRLLEIVGREGVSLT [HAGHL] | 2.84 ± 0.23 | 2.84 ± 0.19 | – | –
19 | QMGVSAKRRPKAQPTTLVLPPQYV [MED27] | 2.99 ± 0.19 | 3.1 ± 0.19 | – | –
20 | LQHAVELKPLCGCHSFAAAADGPT [SMAD6] | 3.16 ± 0.21 | 3.17 ± 0.28 | – | –
21 | AAEVGTGQYATTKGISQTNLITTV [EPB41L3] | 3.54 ± 0.13 | 3.5 ± 0.41 | – | –
22 | TDAHVWNKSVTLYTVKDKATGEVL [NLN] | 3.46 ± 0.6 | 3.36 ± 0.55 | – | –
23 | LAAVLVEPKLHTPMYFFLGNLSVL [OR3A1] | 3.56 ± 0.33 | 3.57 ± 0.57 | – | –

Row | Sequence | protein stability index [1] | protein stability index [2] | protein stability index (treatment: DMSO, c terminus: native) | protein stability index (treatment: MLN4924 1 uM, 8 h, c terminus: native)
24 | ELVKSGVLGADGVCMTFMKQIAGG [INTS3] | 2.27 ± 0.52 | 2.49 ± 0.068 | – | –
25 | SLKRHLKTHTGEKPHRCHNCGKSF [ZNF449] | 2.91 ± 0.56 | 2.97 ± 0.15 | – | –
26 | RAALISRRHLQFWKSHLRNVQRPL [RHOBTB2] | 2.56 ± 0.13 | 2.56 ± 0.22 | – | –
27 | SGMTEVERTYSANCSDFLESKGCF [SPATS1] | 3.62 ± 0.24 | 3.62 ± 0.43 | – | –
28 | LLVSLVTTVVVFVASMVLGECRQM [CLCN6] | 3.02 ± 0.73 | 3 ± 0.94 | – | –
29 | ETVTVTVGPAEPTLVNFHLKRSIP [CPN1] | 3.02 ± 0.3 | 3.16 ± 0.2 | – | –
30 | LADPYRSLKAPGARGPGPEGGGGG [JUNB] | 4.63 ± 0.53 | 4.71 ± 0.47 | – | –
31 | VTDKTLLICKYDFIMLSCVQLQRI [TPRG1] | 3.35 ± 0.84 | 3.48 ± 0.72 | – | –
32 | RAVLGGLSQTDPRAGGGGGGDYGL [PPTC7] | 4.01 ± 0.84 | 3.85 ± 1.5 | – | –
33 | EQNIIPSATNVTCYYQPAPYVSDG [TENT5C] | 3.43 ± 0.4 | 3.63 ± 0.32 | – | –
34 | LTKFLEEHPGGEEVLREQAGGDAT [CYB5A] | 5.44 ± 0.24 | 5.44 ± 0.26 | – | –
35 | VGRIIAPLLSGVAQEVSPCGPPSL [MFSD9] | 2.72 ± 0.23 | 2.65 ± 0.29 | – | –
36 | IKELYENFCKHNGSKNVFSTFRTP [ATL3] | 2.24 ± 0.36 | 2.29 ± 0.39 | – | –
37 | IRMIQEEKESTELRAEEIETRVTS [PPFIA4] | 5.22 ± 0.33 | 5.21 ± 0.38 | – | –
38 | ANGSEIHKHVHFSSSFTSIASEWF [SLC22A15] | 2.44 ± 0.32 | 2.39 ± 0.36 | – | –
39 | SCQEVLRKGCLRFQLPERGSRLCL [DFFB] | 2.27 ± 0.48 | 2.4 ± 0.29 | – | –
40 | LGLPYYETSVFDQFGIKDVFDNAI [RHOBTB1] | 2.34 ± 0.28 | 2.45 ± 0.42 | – | –
41 | KVWDQVKASNPDLKLWEIGKIIGG [SMARCE1] | 2.45 ± 0.32 | 2.36 ± 0.23 | – | –
42 | SPSHSPEHRRTARRTPPGQQRPHP [ELOA2] | 5.06 ± 0.18 | 5.06 ± 0.22 | – | –
43 | CFSVSMLAGPNDRSDVEKGGKIIM [UFD1] | 2.92 ± 0.48 | 3.2 ± 0.52 | – | –
44 | HGQLDDLIFIFYKNGLPSPERSYV [PPEF2] | 2.88 ± 0.41 | 2.35 ± 0.44 | – | –
45 | SKARRKKIMIIICCVILGIVIAST [STX1A] | 2.69 ± 0.23 | 2.67 ± 0.33 | – | –
46 | RESRILFSTWNLDHIIEKKRTIIP [DFFB] | 2.35 ± 0.22 | 2.52 ± 0.22 | – | –

Row | Sequence | protein stability index [1] | protein stability index [2] | protein stability index (treatment: DMSO, c terminus: native) | protein stability index (treatment: MLN4924 1 uM, 8 h, c terminus: native)
47 | TSEGTTLSGVDLELVGSGYRMSLV [FCHO1] | 2.14 ± 0.48 | 2.29 ± 0.29 | – | –
48 | LQRLKEQQFVIAGVLVEDSNNHHL [ZBED1] | 2.83 ± 0.085 | 3.02 ± 0.27 | – | –
49 | RERADIGGLMARPEYREWNPELIK [FAM107A] | 4.16 ± 0.12 | 3.8 ± 0.18 | – | –
50 | RGQEPARADQLCQQELRELRRELE [PRPH] | 4.48 ± 0.36 | 4.53 ± 0.5 | – | –
51 | RQITSPVSGINGDIRAKKIASIAD [HNF4A] | 4.1 ± 0.25 | 4.13 ± 0.2 | – | –
52 | LQQQNEDLKARIDQNTVVTRQLSE [MTUS2] | 5.1 ± 0.26 | 5.21 ± 0.083 | – | –
53 | SPRTRGSWSQPQPLKAPCLNGDTT [RASAL3] | 3.92 ± 0.11 | 4.03 ± 0.23 | – | –
54 | GKDAKTTNGHGGEAAEGKSLGSAL [TRIM29] | 5.36 ± 0.14 | 5.27 ± 0.19 | – | –
55 | PTQKALYNDVMQENYETVISLALF [ZNF75A] | 2.57 ± 0.45 | 2.47 ± 0.37 | – | –
56 | WNPDARYSEHFLQEAKLLHWNGRH [GLT8D2] | 2.81 ± 0.21 | 2.67 ± 0.27 | – | –
57 | KKKKIGFYFEVCGMMVESVNAKTL [PCDHGA10] | 2.28 ± 0.68 | 2.18 ± 0.38 | – | –
58 | TIRGEVMFFKDRFYMRTNPFYPEV [MMP1] | 2.2 ± 0.39 | 2.21 ± 0.12 | – | –
59 | PHSDQRLRPQRTKQYVLLSILLCL [TMEM106C] | 2.34 ± 0.48 | 2.11 ± 0.17 | – | –
60 | EKSQAYPRRRRPGCYAYRQNPEAI [MYORG] | 3.34 ± 0.27 | 3.32 ± 0.14 | – | –
61 | TEVVRDAVRKLKFARHIKKSEGQK [GULP1] | 3.65 ± 0.37 | 3.85 ± 0.29 | – | –
62 | ASIHWDWKIALLFVAFALCMFCLY [SLC35F2] | 2.17 ± 0.36 | 2.26 ± 0.24 | – | –
63 | DQQNPTLGETPENSNLEEPLNPKP [ZNF449] | 5.6 ± 0.19 | 5.29 ± 0.23 | – | –
64 | VDSLESHIPSQEVPGTQVGQGGKL [ZNF263] | 5.33 ± 0.2 | 5.16 ± 0.22 | – | –
65 | LVNDDDEEADDTRYTQGTGGDEVD [ZC3H15] | 5.43 ± 0.31 | 5.67 ± 0.23 | – | –
66 | CTLETTVHASGWNKILVPLVLLRQ [BCL2L13] | 2.61 ± 0.38 | 2.38 ± 0.43 | – | –
67 | FLLDVIPVDGARYRWQGRRWEPSG [TBX6] | 1.81 ± 0.33 | 2.4 ± 0.3 | – | –
68 | DNEGNSALHIIVQYNRPISDFLTL [FEM1B] | 3.06 ± 0.9 | 2.33 ± 0.17 | – | –
69 | PTPSSPLPSVPVSVPASDPRSCSS [PLEKHN1] | 5.15 ± 0.2 | 5.14 ± 0.26 | – | –

Row | Sequence | protein stability index [1] | protein stability index [2] | protein stability index (treatment: DMSO, c terminus: native) | protein stability index (treatment: MLN4924 1 uM, 8 h, c terminus: native)
70 | ISRAQYNALTLTFQRAMHDYNQAE [STX11] | 2.21 ± 0.14 | 2.35 ± 0.14 | – | –
71 | NPEEIRGGGLLKYSNLLVRDFRPT [TENT5C] | 3.04 ± 0.3 | 3.14 ± 0.31 | – | –
72 | SAVQYFQFYGYLSQQQNMMQDYVR [CARM1] | 2.6 ± 0.72 | 3.35 ± 0.64 | – | –
73 | AKSVLKERGLKKIRLGIEGYPTYK [BTBD10] | 2.79 ± 0.23 | 2.8 ± 0.44 | – | –
74 | VASYILASHNGISYKDLDVIFGVE [TENT5D] | 2.93 ± 0.85 | 2.89 ± 1.4 | – | –
75 | FPRKSELTEHQRIHTGIKPHQCSE [ZNF649] | 3.92 ± 0.23 | 4.24 ± 0.18 | – | –
76 | TLPLQDRELGPEELDELQAAFEEF [CABP4] | 5.27 ± 0.23 | 5.27 ± 0.24 | – | –
77 | AGKEAMTSDGYTALHLAARNGHLA [RIPK4] | 3.43 ± 0.69 | 3.85 ± 0.36 | – | –
78 | AFTMEQVRTLEGVFQHHQYLSPLE [VENTX] | 2.83 ± 0.16 | 2.28 ± 0.23 | – | –
79 | NESTVCLMSYERRQILHLITMMAL [TENT5D] | 2.3 ± 0.47 | 2.1 ± 0.2 | – | –
80 | DQSKLAGLLDLNNAILQLVKKYKS [ESRRG] | 2.4 ± 0.26 | 2.31 ± 0.5 | – | –
81 | LPYQHFSAHFTSGPLVPRLAGMAN [TBX5] | 2.7 ± 0.27 | 2.56 ± 0.11 | – | –
82 | QRILRIMCRLEELGLAGRCLTLTP [HDAC6] | 2.39 ± 0.44 | 2.34 ± 0.39 | – | –
83 | GYDGLNILNSVEKYDPHTGHWTNV [KLHL12] | 2.75 ± 0.42 | 3.05 ± 0.19 | – | –
84 | RTEIISRSWFPSAPGSASSSKVSG [YJU2B] | 3.94 ± 0.13 | 3.97 ± 0.15 | – | –
85 | ERDTLSIRESRLFGAVVRWAEAEC [BTBD1] | 3.13 ± 0.21 | 3.12 ± 0.34 | – | –
86 | HGRARIARLMLESEYRSDIINAKS [ASB7] | 3.05 ± 0.3 | 3.18 ± 0.23 | – | –
87 | EGFADGFVKALDDLHKMNHVTPPN [JUNB] | 4.12 ± 0.22 | 4.17 ± 0.3 | – | –
88 | REAATKHSKASLPTGEGSISHEEQ [CHCHD6] | 5.3 ± 0.24 | 5.34 ± 0.3 | – | –
89 | LPPDMTVVPGDHLLEPEVADGGGA [KCNA3] | 5.35 ± 0.39 | 5.42 ± 0.096 | – | –

Reference: the supplement of paper PMC10567573
